Test results reported in the supplement of paper PMC10567573.
± gives the standard deviation.

Experiment: protein stability index of a GFP-peptide fusion (GPS, HEK-293T) (PSI 1-6); higher = more stable
[1] = treatment: DMSO, c terminus: a fixed tail appended
[2] = treatment: MLN4924 1 uM, 8 h, c terminus: a fixed tail appended
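Note: 24-mer peptide tiles fused after GFP, lentivirally expressed, FACS-sorted into six equal bins by GFP/DsRed ratio, decoded by Illumina sequencing, PSI is the read-weighted mean bin number.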

Row | Sequence | protein stability index [1] | protein stability index [2] | protein stability index (treatment: DMSO, c terminus: native) | protein stability index (treatment: MLN4924 1 uM, 8 h, c terminus: native)
1 | AAAAAAPAPPPPAGGATAWGDLLG [SNAP91] | 4.37 ± 0.17 | 4.42 ± 0.081 | – | –
2 | AAFYKGYVPNMLGIIPYAGIDLAV [SLC25A25] | 2.78 ± 0.45 | 3.31 ± 0.57 | – | –
3 | AAHAAQAHRERNEFPEDPEFEAVV [PI4K2A] | 5.29 ± 0.66 | 5.3 ± 0.28 | – | –
4 | AALAVNTSILSRLPPEALTAPSGG [RNF208] | 3.44 ± 0.24 | 3.45 ± 0.14 | – | –
5 | AALDACSGNDPFAPSEGSAEAAPE [SNAP91] | 5.43 ± 0.25 | 5.46 ± 0.3 | – | –
6 | AALHGLEETKKLANKYLVEDVLLL [KLHL14] | 2.42 ± 0.22 | 2.55 ± 0.56 | – | –
7 | AAPGVDLTRVLAEMREQYEAMAEK [KRT15] | 4.57 ± 0.32 | 4.35 ± 0.086 | – | –
8 | AAPRTLAAHPPLPLLPPAMGTEPA [TBX6] | 4.61 ± 0.43 | 4.57 ± 0.29 | – | –
9 | AAQMMDIWVPIKIGALTYFAQADA [ACSBG2] | 2.28 ± 0.69 | 2.85 ± 0.49 | – | –
10 | AARSGDAAANKLFHYIPGTDILDL [PLEKHN1] | 3.51 ± 0.39 | 3.35 ± 0.14 | – | –
11 | ACTLTVFPPEETTPSPSRESPLSA [KLHL13] | 4.35 ± 0.32 | 4.45 ± 0.15 | – | –
12 | ADTEEPTKDPDVAFHGLSLGLSLT [PSD2] | 4.37 ± 0.25 | 4.44 ± 0.27 | – | –
13 | AEKDRRLKKKHQLLEDARRKGMPF [PPFIA4] | 4.05 ± 0.29 | 4.29 ± 0.16 | – | –
14 | AELAETIVYARVLALHPEAPGLYN [CCDC3] | 1.99 ± 0.077 | 2.55 ± 0.2 | – | –
15 | AELLLAARLLGALAARSGAAYGPG [TSPAN10] | 2.93 ± 0.069 | 2.77 ± 0.73 | – | –
16 | AEMFRRKPLFCGNSEADQLGKIFD [CDK4] | 2.98 ± 0.17 | 3.06 ± 0.2 | – | –
17 | AEMNRGSNEWKTVVGGAMFFIGFT [COX4I1] | 2.95 ± 0.91 | 3.18 ± 0.44 | – | –
18 | AERLTATGILLHPWLRQDPMPLAP [TRIB3] | 2.78 ± 0.22 | 2.91 ± 0.18 | – | –
19 | AETDEHTGANTKKPEDTAEDLTAK [FAM9B] | 5.74 ± 0.23 | 5.62 ± 0.12 | – | –
20 | AGEPGHSPADYLRFQDLVLRMLEY [DYRK1B] | 2.27 ± 0.38 | 2.33 ± 0.22 | – | –
21 | AGGHPAQLGLGRGASTFKEEPQTV [JUNB] | 4.511 ± 0.035 | 4.58 ± 0.32 | – | –
22 | AGIALYSHEDVCVFKCSVSRETEC [CARM1] | 3 ± 0.3 | 2.7 ± 0.4 | – | –
23 | AGPAGTGTPSLLRGKRGGHATNYR [EMID1] | 4.72 ± 0.49 | 4.59 ± 0.22 | – | –

Row | Sequence | protein stability index [1] | protein stability index [2] | protein stability index (treatment: DMSO, c terminus: native) | protein stability index (treatment: MLN4924 1 uM, 8 h, c terminus: native)
24 | AGPYLLNGSYLELSSDRVANSSSE [ADAMTSL2] | 4.09 ± 0.27 | 4.07 ± 0.17 | – | –
25 | AHVNTLHSGTKRDPKEDVFQQNHL [PHTF1] | 4.31 ± 0.15 | 4.28 ± 0.18 | – | –
26 | AIHVLGPIDFEESRFYEIHARARD [PCDHGC5] | 2.64 ± 0.45 | 3.01 ± 0.095 | – | –
27 | AILVMHHSMKPHPAITATLLDFMC [INTS3] | 2.91 ± 0.36 | 2.98 ± 0.47 | – | –
28 | AISDQLLGAGSDLKDFTLNETVNS [ADAMTSL2] | 4.32 ± 0.21 | 4.8 ± 0.42 | – | –
29 | AKAAALSTKTPAPCSEFMEPSSDP [SPAG8] | 5.1 ± 0.33 | 5.41 ± 0.19 | – | –
30 | AKGGFSGCSAVLSGGSSSSFRAGS [KRT71] | 3.17 ± 0.13 | 3.17 ± 0.24 | – | –
31 | AKTIDTSPPVDLFATASAAVPVST [SNAP91] | 4.37 ± 0.1 | 4.32 ± 0.13 | – | –
32 | ALVCLLSCLLPSSEAKLYGRCELA [SPACA3] | 3.18 ± 0.42 | 3.04 ± 0.36 | – | –
33 | ANTTPSGKSVSSSSSVETGPSVSE [SPATS1] | 5.32 ± 0.23 | 5.31 ± 0.23 | – | –
34 | APAAPMVSKGAESSRSSEESSSDS [BRD3] | 5.59 ± 0.19 | 5.63 ± 0.18 | – | –
35 | APPPRDYTYRDYGHSSSRDDYPSR [RBMX] | 4.43 ± 0.21 | 4.32 ± 0.078 | – | –
36 | APRLAVAVPAVTSADSQFSQTTQA [LYSMD4] | 4.76 ± 0.16 | 4.81 ± 0.19 | – | –
37 | APVPEPPKEEQQQALEQFAAAAAH [EPB41L3] | 5.54 ± 0.21 | 5.56 ± 0.17 | – | –
38 | AQMSTLHVSPPPSADPARGLPRSR [PDLIM4] | 4.79 ± 0.2 | 4.86 ± 0.13 | – | –
39 | ARELAITDSEHSDAEVSCTDNGTF [RETREG3] | 5.56 ± 0.28 | 5.592 ± 0.033 | – | –
40 | ARLTGVNDKMAEYTNSAGVPSLNA [GOSR1] | 3.83 ± 0.22 | 4.01 ± 0.16 | – | –
41 | ARQAACCVARPGTPSLLRFALASL [ZSWIM9] | 2.33 ± 0.17 | 2.43 ± 0.32 | – | –
42 | ASFDRRGEYIYTGNAKGKILVLKT [RBBP5] | 2.02 ± 0.19 | 2.29 ± 0.32 | – | –
43 | ASGQSYSSREVFTSSSSSSSRQTR [KRT16] | 4.84 ± 0.15 | 4.8 ± 0.21 | – | –
44 | ASSGQHHDFLSDLFSDDYGGKNCK [CEBPB] | 4.54 ± 0.35 | 4.66 ± 0.45 | – | –
45 | ATAFSKLKPESSQQPGQDALAVKA [ZBED1] | 4.8 ± 0.5 | 5.21 ± 0.12 | – | –
46 | ATAVGGGFFLLQLANHTGYIKVDW [FUNDC2] | 3.27 ± 0.8 | 3.08 ± 0.47 | – | –

Row | Sequence | protein stability index [1] | protein stability index [2] | protein stability index (treatment: DMSO, c terminus: native) | protein stability index (treatment: MLN4924 1 uM, 8 h, c terminus: native)
47 | ATIENAQPILQIDNARLAADDFRT [KRT16] | 4.41 ± 0.17 | 4.52 ± 0.16 | – | –
48 | AVAAATAAVEGSGGSGGGSHHHHQ [KCNA4] | 5.04 ± 0.33 | 5.07 ± 0.35 | – | –
49 | AWDNPAYSGPPSPHGTLRVCTISS [PKD2L1] | 2.93 ± 0.31 | 3.05 ± 0.37 | – | –
50 | AWMLCKLLDKAGVPPGVVNIVFGT [ALDH8A1] | 2.642 ± 0.019 | 2.77 ± 0.51 | – | –
51 | AYLVTVRGNLSILAAVLVEPKLHT [OR3A1] | 3.21 ± 0.75 | 2.71 ± 0.68 | – | –
52 | AYVAMIPQCIKEEDTPSDNDSGIC [ATF4] | 4.25 ± 0.41 | 4.46 ± 0.26 | – | –
53 | CAPYDSRLLGSARPELGAALGIYG [IRX6] | 2.56 ± 0.37 | 2.13 ± 0.55 | – | –
54 | CCCCYQSKSLMTSVPMNGTSIQWK [EDNRA] | 2.2 ± 0.26 | 2.39 ± 0.31 | – | –
55 | CEPPSYRPMHHEDFKEDLKKFRTK [CDC25A] | 4.89 ± 0.31 | 4.93 ± 0.28 | – | –
56 | CGKAFYKKYRLTEHERAHRGEKPH [ZNF649] | 3.03 ± 0.33 | 3.18 ± 0.18 | – | –
57 | CHGMSSQLVRYSADGLLQLGPLGS [GALNT9] | 2.32 ± 0.3 | 2.12 ± 0.21 | – | –
58 | CILLSALGYLLLGAATNVFLFVLA [MFSD9] | 2.53 ± 0.45 | 2.77 ± 0.27 | – | –
59 | CLDPIIYFFLCQPFREILCKKLHI [P2RY14] | 2.74 ± 0.2 | 3.252 ± 0.02 | – | –
60 | CLLTYGMTSSSAYYYTKVMSELFL [PKD2L1] | 3.23 ± 0.41 | 2.83 ± 0.73 | – | –
61 | CNPLRYSVLMGHGVCMGLVAAACA [OR10K2] | 3.37 ± 0.59 | 2.83 ± 0.3 | – | –
62 | CPATWGPSVEQAADSLDFDETFLA [FOXJ1] | 4.56 ± 0.15 | 4.61 ± 0.064 | – | –
63 | CQYLMATFVNVYIASFIRGPNPSK [CDS2] | 3.67 ± 0.3 | 3.4 ± 0.45 | – | –
64 | CRAPPPEARGIRAPPLPDSPQPLA [FCHO1] | 4.2 ± 0.6 | 4.3 ± 0.22 | – | –
65 | CRELGYVEAKSWTASSSYGKGEGP [LOXL2] | 3.44 ± 0.41 | 3.45 ± 0.37 | – | –
66 | CSVHYVSDSGDGVYAGRPLSVIQM [FBXO34] | 2.37 ± 0.78 | 2.75 ± 0.68 | – | –
67 | CTDSVVKYELMRPSNKAPLLVLCE [EHMT1] | 2.02 ± 0.26 | 2.22 ± 0.24 | – | –
68 | CVDLTITNLLEGAVAFMPEDITKG [AUP1] | 2.29 ± 0.2 | 2.57 ± 0.33 | – | –
69 | CVNYEGQSAYDVADMLKQYFRDLP [DLC1] | 2.54 ± 0.21 | 2.65 ± 0.32 | – | –

Row | Sequence | protein stability index [1] | protein stability index [2] | protein stability index (treatment: DMSO, c terminus: native) | protein stability index (treatment: MLN4924 1 uM, 8 h, c terminus: native)
70 | CVTLVWRMPDEDSKIDHYVLEYRR [FSD1] | 2.29 ± 0.43 | 1.93 ± 0.3 | – | –
71 | CYETLPRGQCLLYNWEEERATNHL [SPAG8] | 2.92 ± 0.16 | 3.09 ± 0.23 | – | –
72 | DAEMELRAKEEERLNKLRLESEGS [HACD3] | 5.56 ± 0.28 | 5.3 ± 0.24 | – | –
73 | DAFWWAVVSMTTVGYGDMYPVTIG [KCNA1] | 3.45 ± 0.23 | 3.33 ± 0.49 | – | –
74 | DALMKEQLVEMTGLSPRVIRVWFQ [ISL2] | 2.27 ± 0.27 | 2.22 ± 0.12 | – | –
75 | DCLEGKKSKHAPRGTHLWEFIRDI [ELF3] | 2.66 ± 0.2 | 2.66 ± 0.39 | – | –
76 | DCRVDLGSEVYRMLREPAEPVAAE [PDLIM4] | 4.67 ± 0.05 | 4.76 ± 0.092 | – | –
77 | DCTETIEGLELTEQTFSPAKSLSF [ADD1] | 4.16 ± 0.36 | 4.21 ± 0.26 | – | –
78 | DDEDEEEEDADCYDDDDSGNEES [UBE2R2] | – | – | 5.57 ± 0.33 | 5.57 ± 0.084
79 | DEAKKFHLRPELRSQMQGPRTRAR [KLHL12] | 4.8 ± 0.1 | 4.67 ± 0.42 | – | –
80 | DEDELRKSLSELVDDKFGTGTKKV [PSD2] | 5.2 ± 0.15 | 5.4 ± 0.21 | – | –
81 | DEEHMEEAITSASFLEQIMAPLQP [FAM189A2] | 4.74 ± 0.18 | 4.96 ± 0.19 | – | –
82 | DELTLARTDLEMQIEGLNEELAYL [KRT15] | 4.1 ± 0.21 | 4.42 ± 0.36 | – | –
83 | DENERDLMHIAHIAELLEVFDLRM [RHOBTB2] | 2.63 ± 0.11 | 2.7 ± 0.34 | – | –
84 | DGAGKTPTLGGGFHVNLGKESRAQ [BRF1] | 4.63 ± 0.14 | 4.77 ± 0.34 | – | –
85 | DGAPALCPSPEALSPEPPVYSLQD [PRKX] | 5.37 ± 0.098 | 5.21 ± 0.15 | – | –
86 | DISMEIPQEFQKTVSTMYYLWMCS [SCAMP3] | 2.28 ± 0.54 | 2.38 ± 0.39 | – | –
87 | DKEGYNSIHYAAAYGHRQCLELVS [ANKRD44] | 2.42 ± 0.14 | 2.59 ± 0.21 | – | –
88 | DLDACALVRGHRRRLLRRLSPSRG [ZSWIM9] | 4.11 ± 0.46 | 4.12 ± 0.29 | – | –
89 | DLDNYFTARRLLSQVRALDRFQVP [NFE2L1] | 2.5 ± 0.2 | 2.35 ± 0.3 | – | –
